In publication PMC9482650, “Quantitative fragmentomics allow affinity mapping of interactomes” (Nature Communications, 2022):

Key:
Test in all cases: holdup assay
Design in all cases: key: below the threshold = too weak to quantify, mostly under pKd 3.1 to 4
AHNAK2, Q8IVF2 = biological target: AHNAK2, Q8IVF2
APBA3_1, O96018 = biological target: T1, APBA3_1, O96018
T1 sequence (O96018 389-490, limits assumed, looked up): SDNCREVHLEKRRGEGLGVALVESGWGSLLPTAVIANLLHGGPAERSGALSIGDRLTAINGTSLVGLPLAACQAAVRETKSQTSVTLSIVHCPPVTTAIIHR

APBA3_2, O96018 = biological target: T2, APBA3_2, O96018
T2 sequence (O96018 480-570, limits assumed, looked up): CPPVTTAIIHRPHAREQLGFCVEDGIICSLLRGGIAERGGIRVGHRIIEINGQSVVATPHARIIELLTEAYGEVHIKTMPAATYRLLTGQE

CASK, O14936 = biological target: CASK, O14936
DLG2_1, Q15700 = biological target: DLG2_1, Q15700
MAGI1_3, Q96QZ7 = biological target: MAGI1_3, Q96QZ7
MAGI3_3, Q5TCQ9 = biological target: MAGI3_3, Q5TCQ9
MAGIX, Q9H6Y5 = biological target: MAGIX, Q9H6Y5
MLLT4, P55196 = biological target: T3, MLLT4, P55196
T3 sequence (P55196 1002-1103, limits assumed, looked up): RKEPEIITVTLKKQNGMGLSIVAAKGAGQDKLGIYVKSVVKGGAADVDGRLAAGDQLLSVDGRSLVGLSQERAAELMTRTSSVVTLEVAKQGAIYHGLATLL

MPDZ_13, O75970 = biological target: T4, MPDZ_13, O75970
T4 sequence (O75970 1982-2070, limits assumed, looked up): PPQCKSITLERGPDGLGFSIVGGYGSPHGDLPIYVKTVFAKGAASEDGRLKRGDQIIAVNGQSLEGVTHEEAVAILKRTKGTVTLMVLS

MPP5, Q8N3R9 = biological target: T5, MPP5, Q8N3R9
T5 sequence (Q8N3R9 251-346, limits assumed, looked up): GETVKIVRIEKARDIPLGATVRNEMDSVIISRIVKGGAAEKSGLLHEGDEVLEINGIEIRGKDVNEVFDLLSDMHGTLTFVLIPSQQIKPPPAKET

NHERF1_1, O14745 = biological target: T6, NHERF1_1, O14745
T6 sequence (O14745 9-104, limits assumed, looked up): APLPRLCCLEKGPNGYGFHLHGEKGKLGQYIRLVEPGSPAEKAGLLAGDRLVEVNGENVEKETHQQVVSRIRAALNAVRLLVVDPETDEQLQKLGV

NHERF4_3, Q86UT5 = biological target: NHERF4_3, Q86UT5
PDZD11, Q5EBL8 = biological target: T7, PDZD11, Q5EBL8
T7 sequence (Q5EBL8 42-139, limits assumed, looked up): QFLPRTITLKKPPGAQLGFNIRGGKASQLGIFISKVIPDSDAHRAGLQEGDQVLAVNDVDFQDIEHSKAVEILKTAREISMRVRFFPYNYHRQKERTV

PDZD2_4, O15018 = biological target: T8, PDZD2_4, O15018
T8 sequence (O15018 723-823, limits assumed, looked up): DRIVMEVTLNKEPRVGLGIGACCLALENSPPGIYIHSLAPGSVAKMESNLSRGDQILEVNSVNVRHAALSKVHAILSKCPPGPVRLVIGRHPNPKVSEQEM

PREX1_1, Q8TCU6 = biological target: PREX1_1, Q8TCU6
PTPN4, P29074 = biological target: T9, PTPN4, P29074
T9 sequence (P29074 512-599, limits assumed, looked up): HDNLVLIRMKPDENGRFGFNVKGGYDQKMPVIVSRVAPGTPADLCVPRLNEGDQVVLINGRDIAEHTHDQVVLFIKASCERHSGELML

SDCBP_1, O00560 = biological target: SDCBP_1, O00560
SHANK2, Q9UPX8 = biological target: T10, SHANK2, Q9UPX8
T10 sequence (Q9UPX8 621-730, limits assumed, looked up): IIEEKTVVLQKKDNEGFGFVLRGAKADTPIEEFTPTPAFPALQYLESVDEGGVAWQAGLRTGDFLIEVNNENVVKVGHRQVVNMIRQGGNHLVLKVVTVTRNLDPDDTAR

TJP2_1, Q9UDY2 = biological target: TJP2_1, Q9UDY2
USH1C_2, Q9Y6N9 = biological target: T11, USH1C_2, Q9Y6N9
T11 sequence (Q9Y6N9 206-303, limits assumed, looked up): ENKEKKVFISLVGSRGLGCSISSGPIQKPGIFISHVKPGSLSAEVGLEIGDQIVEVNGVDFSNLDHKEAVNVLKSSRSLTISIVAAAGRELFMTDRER

CARD14, Q9BXL6 = conditions: plain residues with an end cap or a label only (N-terminal biotin on a linker: (peg)3)
CNKSR1, Q969H4 = biological target: T12, CNKSR1, Q969H4; conditions: plain residues with an end cap or a label only (N-terminal biotin on a linker: (peg)3)
T12 sequence (Q969H4 191-295, limits assumed, looked up): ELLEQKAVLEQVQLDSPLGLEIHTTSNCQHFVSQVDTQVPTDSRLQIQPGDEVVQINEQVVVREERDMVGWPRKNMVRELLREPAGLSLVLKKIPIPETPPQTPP

GIPC1, O14908 = biological target: T13, GIPC1, O14908; conditions: plain residues with an end cap or a label only (N-terminal biotin on a linker: (peg)3)
T13 sequence (O14908 128-223, limits assumed, looked up): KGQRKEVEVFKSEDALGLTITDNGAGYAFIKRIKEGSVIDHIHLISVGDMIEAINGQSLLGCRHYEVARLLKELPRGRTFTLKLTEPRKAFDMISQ

[1] = modified: phospho on T at position -2 from the C-terminal residue
[2] = plain residues with an end cap or a label only (N-terminal biotin on a linker: (peg)3)

Sequence of CASK, O14936 (O14936 487-570): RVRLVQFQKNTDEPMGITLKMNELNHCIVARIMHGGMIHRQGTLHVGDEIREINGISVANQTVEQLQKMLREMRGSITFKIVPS
Sequence of MAGI1_3, Q96QZ7 (Q96QZ7 638-725): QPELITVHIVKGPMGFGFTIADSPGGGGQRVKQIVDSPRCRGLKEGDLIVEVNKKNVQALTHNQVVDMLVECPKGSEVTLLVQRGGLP
Sequence of MAGI3_3, Q5TCQ9 (Q5TCQ9 572-655): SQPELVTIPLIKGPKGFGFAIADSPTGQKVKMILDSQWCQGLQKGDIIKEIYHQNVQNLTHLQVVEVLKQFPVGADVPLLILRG
Sequence of AHNAK2, Q8IVF2 (Q8IVF2 108-193): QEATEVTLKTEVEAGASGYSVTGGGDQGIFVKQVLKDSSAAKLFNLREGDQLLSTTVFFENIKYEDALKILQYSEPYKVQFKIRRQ
Sequence of SDCBP_1, O00560 (O00560 111-198): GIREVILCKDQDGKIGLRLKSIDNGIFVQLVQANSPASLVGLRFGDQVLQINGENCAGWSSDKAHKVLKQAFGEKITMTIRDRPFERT
Sequence of TJP2_1, Q9UDY2 (Q9UDY2 24-128): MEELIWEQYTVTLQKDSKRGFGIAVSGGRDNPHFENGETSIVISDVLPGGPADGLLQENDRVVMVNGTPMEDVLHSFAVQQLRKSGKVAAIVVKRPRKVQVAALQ
Sequence of CARD14, Q9BXL6 (Q9BXL6 558-663): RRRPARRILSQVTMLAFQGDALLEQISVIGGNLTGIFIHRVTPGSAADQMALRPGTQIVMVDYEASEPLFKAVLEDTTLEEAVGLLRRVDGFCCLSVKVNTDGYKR
Sequence of NHERF4_3, Q86UT5 (Q86UT5 325-412): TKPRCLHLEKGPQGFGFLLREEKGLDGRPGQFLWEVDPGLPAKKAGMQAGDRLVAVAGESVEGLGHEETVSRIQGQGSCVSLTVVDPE
Sequence of MAGIX, Q9H6Y5 (Q9H6Y5 118-211): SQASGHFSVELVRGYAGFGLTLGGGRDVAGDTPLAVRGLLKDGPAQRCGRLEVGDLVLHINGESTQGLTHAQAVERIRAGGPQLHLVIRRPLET
Sequence of PREX1_1, Q8TCU6 (Q8TCU6 608-718): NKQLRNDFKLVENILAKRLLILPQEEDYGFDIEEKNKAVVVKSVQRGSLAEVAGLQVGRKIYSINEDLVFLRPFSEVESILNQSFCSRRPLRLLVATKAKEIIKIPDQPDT

SSRTRRETQL [HPV16-E6_-2P, P03126]
pKd (AHNAK2, Q8IVF2; [1]): below the threshold | pKd (APBA3_1, O96018; [1]): below the threshold | pKd (APBA3_2, O96018; [1]): below the threshold | pKd (CASK, O14936; [1]): below the threshold | pKd (DLG2_1, Q15700; [1]): below the threshold | pKd (MAGI1_3, Q96QZ7; [1]): below the threshold | pKd (MAGI3_3, Q5TCQ9; [1]): below the threshold | pKd (MAGIX, Q9H6Y5; [1]): below the threshold | pKd (MLLT4, P55196; [1]): below the threshold | pKd (MPDZ_13, O75970; [1]): below the threshold | pKd (MPP5, Q8N3R9; [1]): below the threshold | pKd (NHERF1_1, O14745; [1]): below the threshold | pKd (NHERF4_3, Q86UT5; [1]): below the threshold | pKd (PDZD11, Q5EBL8; [1]): below the threshold | pKd (PDZD2_4, O15018; [1]): below the threshold | pKd (PREX1_1, Q8TCU6; [1]): below the threshold | pKd (PTPN4, P29074; [1]): below the threshold | pKd (SDCBP_1, O00560; [1]): below the threshold | pKd (SHANK2, Q9UPX8; [1]): below the threshold | pKd (TJP2_1, Q9UDY2; [1]): below the threshold | pKd (USH1C_2, Q9Y6N9; [1]): 4.45

RYEDTTLVEDTVL [WNV-NS5, Q9Q6P4]
pKd (AHNAK2, Q8IVF2; [2]): below the threshold | pKd (APBA3_1, O96018; [2]): below the threshold | pKd (APBA3_2, O96018; [2]): below the threshold | pKd (CARD14, Q9BXL6): below the threshold | pKd (CASK, O14936; [2]): below the threshold | pKd (CNKSR1, Q969H4): below the threshold | pKd (DLG2_1, Q15700; [2]): 4.28 | pKd (GIPC1, O14908): below the threshold | pKd (MAGI1_3, Q96QZ7; [2]): below the threshold | pKd (MAGI3_3, Q5TCQ9; [2]): below the threshold | pKd (MAGIX, Q9H6Y5; [2]): below the threshold | pKd (MLLT4, P55196; [2]): below the threshold | pKd (MPDZ_13, O75970; [2]): below the threshold | pKd (MPP5, Q8N3R9; [2]): below the threshold | pKd (NHERF1_1, O14745; [2]): 5.14 | pKd (NHERF4_3, Q86UT5; [2]): below the threshold | pKd (PDZD11, Q5EBL8; [2]): below the threshold | pKd (PDZD2_4, O15018; [2]): below the threshold | pKd (PREX1_1, Q8TCU6; [2]): below the threshold | pKd (PTPN4, P29074; [2]): below the threshold | pKd (SDCBP_1, O00560; [2]): below the threshold | pKd (SHANK2, Q9UPX8; [2]): 4.59 | pKd (TJP2_1, Q9UDY2; [2]): below the threshold | pKd (USH1C_2, Q9Y6N9; [2]): below the threshold

QQSMSSADSTQA [SARS-Cov2-N, P0DTC9]
pKd (AHNAK2, Q8IVF2; [2]): below the threshold | pKd (APBA3_1, O96018; [2]): below the threshold | pKd (APBA3_2, O96018; [2]): below the threshold | pKd (CARD14, Q9BXL6): below the threshold | pKd (CASK, O14936; [2]): below the threshold | pKd (CNKSR1, Q969H4): below the threshold | pKd (DLG2_1, Q15700; [2]): below the threshold | pKd (GIPC1, O14908): 4.46 | pKd (MAGI1_3, Q96QZ7; [2]): below the threshold | pKd (MAGI3_3, Q5TCQ9; [2]): 3.78 | pKd (MAGIX, Q9H6Y5; [2]): below the threshold | pKd (MLLT4, P55196; [2]): below the threshold | pKd (MPDZ_13, O75970; [2]): below the threshold | pKd (MPP5, Q8N3R9; [2]): below the threshold | pKd (NHERF1_1, O14745; [2]): below the threshold | pKd (NHERF4_3, Q86UT5; [2]): below the threshold | pKd (PDZD11, Q5EBL8; [2]): below the threshold | pKd (PDZD2_4, O15018; [2]): below the threshold | pKd (PREX1_1, Q8TCU6; [2]): below the threshold | pKd (PTPN4, P29074; [2]): below the threshold | pKd (SDCBP_1, O00560; [2]): below the threshold | pKd (SHANK2, Q9UPX8; [2]): below the threshold | pKd (TJP2_1, Q9UDY2; [2]): below the threshold | pKd (USH1C_2, Q9Y6N9; [2]): below the threshold

RRRRSQSRESQC [HBV-HBc, P03193]
pKd (AHNAK2, Q8IVF2; [2]): below the threshold | pKd (APBA3_1, O96018; [2]): below the threshold | pKd (APBA3_2, O96018; [2]): below the threshold | pKd (CARD14, Q9BXL6): below the threshold | pKd (CASK, O14936; [2]): below the threshold | pKd (CNKSR1, Q969H4): 3.9 | pKd (DLG2_1, Q15700; [2]): 4.51 | pKd (GIPC1, O14908): 5.58 | pKd (MAGI1_3, Q96QZ7; [2]): below the threshold | pKd (MAGI3_3, Q5TCQ9; [2]): below the threshold | pKd (MAGIX, Q9H6Y5; [2]): below the threshold | pKd (MLLT4, P55196; [2]): below the threshold | pKd (MPDZ_13, O75970; [2]): below the threshold | pKd (MPP5, Q8N3R9; [2]): below the threshold | pKd (NHERF1_1, O14745; [2]): below the threshold | pKd (NHERF4_3, Q86UT5; [2]): below the threshold | pKd (PDZD11, Q5EBL8; [2]): below the threshold | pKd (PDZD2_4, O15018; [2]): below the threshold | pKd (PREX1_1, Q8TCU6; [2]): below the threshold | pKd (PTPN4, P29074; [2]): 4.94 | pKd (SDCBP_1, O00560; [2]): below the threshold | pKd (SHANK2, Q9UPX8; [2]): below the threshold | pKd (TJP2_1, Q9UDY2; [2]): below the threshold | pKd (USH1C_2, Q9Y6N9; [2]): 4.09
